Measured values reported in patent US20250171562A1.

B1: NIgG4F1A1(RS) (Fc fusion)
chain 1: DVQLQESGGGLVQAGGSLKLSCAASGGSLSRYDMGWFRQAPGKEREFVARISWSGTTKYYADAVKGRFAISRDNAKNTVYLQMNSLKPEDTAVYYCAAAFYGNRGYYDVNAYTSSGQGTQVTVSRSGPPCPPCPAPEFLGGPSVFLFPPKPKDTLMISRTPEVTCVVVDVSQEDPEVQFNWYVDGVEVHNAKTKPREEQFNSTYRVVSVLTVLHQDWLNGKEYKCKVSNKGLPSSIEKTISKAKGQPREPQVYTLPPCQEEMTKNQVSLWCLVKGFYPSDIAVEWESNGQPENNYKTTPPVLDSDGSFFLYSRLTVDKSRWQEGNVFSCSVMHEALHNHYTQKSLSLSLGK
chain 2: EVQLLESGGGLVQPGGSLRLSCAASGFTFGNYDMAWVRQAPGKRPEWVSSIDTGGDITHYADSVKGRFTISRDNAKNTLYLQMNSLRPEDTAVYWCATDEEYALGPNEFDYYGQGTLVTVSSRSGPPCPPCPAPEFLGGPSVFLFPPKPKDTLMISRTPEVTCVVVDVSQEDPEVQFNWYVDGVEVHNAKTKPREEQFNSTYRVVSVLTVLHQDWLNGKEYKCKVSNKGLPSSIEKTISKAKGQPREPQVCTLPPSQEEMTKNQVSLSCAVKGFYPSDIAVEWESNGQPENNYKTTPPVLDSDGSFFLVSRLTVDKSRWQEGNVFSCSVMHEALHNHYTQKSLSLSLGK
B2: CIgG4E4A1(G4S)1 (Fc fusion)
chain 1: GPPCPPCPAPEFLGGPSVFLFPPKPKDTLMISRTPEVTCVVVDVSQEDPEVQFNWYVDGVEVHNAKTKPREEQFNSTYRVVSVLTVLHQDWLNGKEYKCKVSNKGLPSSIEKTISKAKGQPREPQVYTLPPCQEEMTKNQVSLWCLVKGFYPSDIAVEWESNGQPENNYKTTPPVLDSDGSFFLYSRLTVDKSRWQEGNVFSCSVMHEALHNHYTQKSLSLSLGKGGGGSDVQLQESGGGLVQPGGSLRLSCAASGFRFSNYAMRWYRQAPGKEREFVARISSTGFITRYTASVRDRFTISRDNDKNMMYLQLNKLTPQDTAHYYCNAESTDYWGQGTQVTVS
chain 2: GPPCPPCPAPEFLGGPSVFLFPPKPKDTLMISRTPEVTCVVVDVSQEDPEVQFNWYVDGVEVHNAKTKPREEQFNSTYRVVSVLTVLHQDWLNGKEYKCKVSNKGLPSSIEKTISKAKGQPREPQVCTLPPSQEEMTKNQVSLSCAVKGFYPSDIAVEWESNGQPENNYKTTPPVLDSDGSFFLVSRLTVDKSRWQEGNVFSCSVMHEALHNHYTQKSLSLSLGKGGGGSEVQLLESGGGLVQPGGSLRLSCAASGFTFGNYDMAWVRQAPGKRPEWVSSIDTGGDITHYADSVKGRFTISRDNAKNTLYLQMNSLRPEDTAVYWCATDEEYALGPNEFDYYGQGTLVTVSS
B3: NIgG4F1A1(G4S)1 (Fc fusion)
chain 1: DVQLQESGGGLVQAGGSLKLSCAASGGSLSRYDMGWFRQAPGKEREFVARISWSGTTKYYADAVKGRFAISRDNAKNTVYLQMNSLKPEDTAVYYCAAAFYGNRGYYDVNAYTSSGQGTQVTVSGGGGSGPPCPPCPAPEFLGGPSVFLFPPKPKDTLMISRTPEVTCVVVDVSQEDPEVQFNWYVDGVEVHNAKTKPREEQFNSTYRVVSVLTVLHQDWLNGKEYKCKVSNKGLPSSIEKTISKAKGQPREPQVYTLPPCQEEMTKNQVSLWCLVKGFYPSDIAVEWESNGQPENNYKTTPPVLDSDGSFFLYSRLTVDKSRWQEGNVFSCSVMHEALHNHYTQKSLSLSLGK
chain 2: EVQLLESGGGLVQPGGSLRLSCAASGFTFGNYDMAWVRQAPGKRPEWVSSIDTGGDITHYADSVKGRFTISRDNAKNTLYLQMNSLRPEDTAVYWCATDEEYALGPNEFDYYGQGTLVTVSSGGGGSGPPCPPCPAPEFLGGPSVFLFPPKPKDTLMISRTPEVTCVVVDVSQEDPEVQFNWYVDGVEVHNAKTKPREEQFNSTYRVVSVLTVLHQDWLNGKEYKCKVSNKGLPSSIEKTISKAKGQPREPQVCTLPPSQEEMTKNQVSLSCAVKGFYPSDIAVEWESNGQPENNYKTTPPVLDSDGSFFLVSRLTVDKSRWQEGNVFSCSVMHEALHNHYTQKSLSLSLGK
B4: NIgG4E4A1(G4S)3 (Fc fusion)
chain 1: DVQLQESGGGLVQPGGSLRLSCAASGFRFSNYAMRWYRQAPGKEREFVARISSTGFITRYTASVRDRFTISRDNDKNMMYLQLNKLTPQDTAHYYCNAESTDYWGQGTQVTVSGGGGSGGGGSGGGGSGPPCPPCPAPEFLGGPSVFLFPPKPKDTLMISRTPEVTCVVVDVSQEDPEVQFNWYVDGVEVHNAKTKPREEQFNSTYRVVSVLTVLHQDWLNGKEYKCKVSNKGLPSSIEKTISKAKGQPREPQVYTLPPCQEEMTKNQVSLWCLVKGFYPSDIAVEWESNGQPENNYKTTPPVLDSDGSFFLYSRLTVDKSRWQEGNVFSCSVMHEALHNHYTQKSLSLSLGK
chain 2: EVQLLESGGGLVQPGGSLRLSCAASGFTFGNYDMAWVRQAPGKRPEWVSSIDTGGDITHYADSVKGRFTISRDNAKNTLYLQMNSLRPEDTAVYWCATDEEYALGPNEFDYYGQGTLVTVSSGGGGSGGGGSGGGGSGPPCPPCPAPEFLGGPSVFLFPPKPKDTLMISRTPEVTCVVVDVSQEDPEVQFNWYVDGVEVHNAKTKPREEQFNSTYRVVSVLTVLHQDWLNGKEYKCKVSNKGLPSSIEKTISKAKGQPREPQVCTLPPSQEEMTKNQVSLSCAVKGFYPSDIAVEWESNGQPENNYKTTPPVLDSDGSFFLVSRLTVDKSRWQEGNVFSCSVMHEALHNHYTQKSLSLSLGK
B5: CIgG4E4A1(G4S)2 (Fc fusion)
chain 1: GPPCPPCPAPEFLGGPSVFLFPPKPKDTLMISRTPEVTCVVVDVSQEDPEVQFNWYVDGVEVHNAKTKPREEQFNSTYRVVSVLTVLHQDWLNGKEYKCKVSNKGLPSSIEKTISKAKGQPREPQVYTLPPCQEEMTKNQVSLWCLVKGFYPSDIAVEWESNGQPENNYKTTPPVLDSDGSFFLYSRLTVDKSRWQEGNVFSCSVMHEALHNHYTQKSLSLSLGKGGGGSGGGGSDVQLQESGGGLVQPGGSLRLSCAASGFRFSNYAMRWYRQAPGKEREFVARISSTGFITRYTASVRDRFTISRDNDKNMMYLQLNKLTPQDTAHYYCNAESTDYWGQGTQVTVS
chain 2: GPPCPPCPAPEFLGGPSVFLFPPKPKDTLMISRTPEVTCVVVDVSQEDPEVQFNWYVDGVEVHNAKTKPREEQFNSTYRVVSVLTVLHQDWLNGKEYKCKVSNKGLPSSIEKTISKAKGQPREPQVCTLPPSQEEMTKNQVSLSCAVKGFYPSDIAVEWESNGQPENNYKTTPPVLDSDGSFFLVSRLTVDKSRWQEGNVFSCSVMHEALHNHYTQKSLSLSLGKGGGGSGGGGSEVQLLESGGGLVQPGGSLRLSCAASGFTFGNYDMAWVRQAPGKRPEWVSSIDTGGDITHYADSVKGRFTISRDNAKNTLYLQMNSLRPEDTAVYWCATDEEYALGPNEFDYYGQGTLVTVSS
B6: CIgG4E4A1(G4S)3 (Fc fusion)
chain 1: GPPCPPCPAPEFLGGPSVFLFPPKPKDTLMISRTPEVTCVVVDVSQEDPEVQFNWYVDGVEVHNAKTKPREEQFNSTYRVVSVLTVLHQDWLNGKEYKCKVSNKGLPSSIEKTISKAKGQPREPQVYTLPPCQEEMTKNQVSLWCLVKGFYPSDIAVEWESNGQPENNYKTTPPVLDSDGSFFLYSRLTVDKSRWQEGNVFSCSVMHEALHNHYTQKSLSLSLGKGGGGSGGGGSGGGGSDVQLQESGGGLVQPGGSLRLSCAASGFRFSNYAMRWYRQAPGKEREFVARISSTGFITRYTASVRDRFTISRDNDKNMMYLQLNKLTPQDTAHYYCNAESTDYWGQGTQVTVS
chain 2: GPPCPPCPAPEFLGGPSVFLFPPKPKDTLMISRTPEVTCVVVDVSQEDPEVQFNWYVDGVEVHNAKTKPREEQFNSTYRVVSVLTVLHQDWLNGKEYKCKVSNKGLPSSIEKTISKAKGQPREPQVCTLPPSQEEMTKNQVSLSCAVKGFYPSDIAVEWESNGQPENNYKTTPPVLDSDGSFFLVSRLTVDKSRWQEGNVFSCSVMHEALHNHYTQKSLSLSLGKGGGGSGGGGSGGGGSEVQLLESGGGLVQPGGSLRLSCAASGFTFGNYDMAWVRQAPGKRPEWVSSIDTGGDITHYADSVKGRFTISRDNAKNTLYLQMNSLRPEDTAVYWCATDEEYALGPNEFDYYGQGTLVTVSS
B7: CIgG4E4A1(RS) (Fc fusion)
chain 1: GPPCPPCPAPEFLGGPSVFLFPPKPKDTLMISRTPEVTCVVVDVSQEDPEVQFNWYVDGVEVHNAKTKPREEQFNSTYRVVSVLTVLHQDWLNGKEYKCKVSNKGLPSSIEKTISKAKGQPREPQVYTLPPCQEEMTKNQVSLWCLVKGFYPSDIAVEWESNGQPENNYKTTPPVLDSDGSFFLYSRLTVDKSRWQEGNVFSCSVMHEALHNHYTQKSLSLSLGKRSDVQLQESGGGLVQPGGSLRLSCAASGFRFSNYAMRWYRQAPGKEREFVARISSTGFITRYTASVRDRFTISRDNDKNMMYLQLNKLTPQDTAHYYCNAESTDYWGQGTQVTVS
chain 2: GPPCPPCPAPEFLGGPSVFLFPPKPKDTLMISRTPEVTCVVVDVSQEDPEVQFNWYVDGVEVHNAKTKPREEQFNSTYRVVSVLTVLHQDWLNGKEYKCKVSNKGLPSSIEKTISKAKGQPREPQVCTLPPSQEEMTKNQVSLSCAVKGFYPSDIAVEWESNGQPENNYKTTPPVLDSDGSFFLVSRLTVDKSRWQEGNVFSCSVMHEALHNHYTQKSLSLSLGKRSEVQLLESGGGLVQPGGSLRLSCAASGFTFGNYDMAWVRQAPGKRPEWVSSIDTGGDITHYADSVKGRFTISRDNAKNTLYLQMNSLRPEDTAVYWCATDEEYALGPNEFDYYGQGTLVTVSS
B8: NIgG4F1A1(G4S)2 (Fc fusion)
chain 1: DVQLQESGGGLVQAGGSLKLSCAASGGSLSRYDMGWFRQAPGKEREFVARISWSGTTKYYADAVKGRFAISRDNAKNTVYLQMNSLKPEDTAVYYCAAAFYGNRGYYDVNAYTSSGQGTQVTVSGGGGSGGGGSGPPCPPCPAPEFLGGPSVFLFPPKPKDTLMISRTPEVTCVVVDVSQEDPEVQFNWYVDGVEVHNAKTKPREEQFNSTYRVVSVLTVLHQDWLNGKEYKCKVSNKGLPSSIEKTISKAKGQPREPQVYTLPPCQEEMTKNQVSLWCLVKGFYPSDIAVEWESNGQPENNYKTTPPVLDSDGSFFLYSRLTVDKSRWQEGNVFSCSVMHEALHNHYTQKSLSLSLGK
chain 2: EVQLLESGGGLVQPGGSLRLSCAASGFTFGNYDMAWVRQAPGKRPEWVSSIDTGGDITHYADSVKGRFTISRDNAKNTLYLQMNSLRPEDTAVYWCATDEEYALGPNEFDYYGQGTLVTVSSGGGGSGGGGSGPPCPPCPAPEFLGGPSVFLFPPKPKDTLMISRTPEVTCVVVDVSQEDPEVQFNWYVDGVEVHNAKTKPREEQFNSTYRVVSVLTVLHQDWLNGKEYKCKVSNKGLPSSIEKTISKAKGQPREPQVCTLPPSQEEMTKNQVSLSCAVKGFYPSDIAVEWESNGQPENNYKTTPPVLDSDGSFFLVSRLTVDKSRWQEGNVFSCSVMHEALHNHYTQKSLSLSLGK

Target: mixture of three Der p 2 specific recombinant human IgE clones H10, H12, P4E (human) (UniProt P01854)
Assay: RBL-SX38 IgE displacement, FACS

Chain of mixture of three Der p 2 specific recombinant human IgE clones H10, H12, P4E (human) (P01854 other isoform, or with tags, fused parts or gaps): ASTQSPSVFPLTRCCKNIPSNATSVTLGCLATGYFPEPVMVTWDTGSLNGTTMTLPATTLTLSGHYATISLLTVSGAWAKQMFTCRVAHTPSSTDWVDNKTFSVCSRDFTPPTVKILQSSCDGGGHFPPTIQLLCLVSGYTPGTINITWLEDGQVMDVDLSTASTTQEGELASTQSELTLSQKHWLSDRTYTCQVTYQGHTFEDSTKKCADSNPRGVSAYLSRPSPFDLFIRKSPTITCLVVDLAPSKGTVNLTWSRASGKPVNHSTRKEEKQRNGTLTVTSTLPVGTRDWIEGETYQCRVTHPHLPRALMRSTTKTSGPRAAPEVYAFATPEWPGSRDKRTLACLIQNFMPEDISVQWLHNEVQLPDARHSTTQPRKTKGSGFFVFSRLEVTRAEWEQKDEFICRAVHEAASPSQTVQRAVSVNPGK

Binder | EC50 [nM] | Max effect/effect 1 µM [%]
B1 | 3.5 | 88
B2 | 242 | 87
B3 | 2.6 | 92
B4 | 36 | 92
B5 | 107 | 94
B6 | 31.6 | 98
B7 |  | 0
B8 | 2.1 | 95
